B1: H4H9814P (antibody, human IgG4 S228P, kappa, V domains shown)
VH: EVQLVESGGGLVQPGGSLKLSCTASGFTFSGSVIHWVRQASGKGLEWIGRIRNKANSYATAYGASVTGRFTISRDDSKNTAYLQMNSLKTEDTAVYYCTFPGVVGRGGFDYWGQGTLVTVSS
VL: DIVMTQSPDSLAVSLGEGATINCMSSQSVLFSSNNKNYLAWYQQKPGQPPKLLFYWASTRESGVPDRFGGSGSGTDFSLTINSLQTEDVAVYYCLQYYSIPWTFGQGTKVEIKR
notes: Fully human anti-human TrkB agonist antibody, human IgG4 Fc; also called H4H9814P-L1
B2: H1M8037C (antibody, mouse IgG1, kappa, V domains shown)
VH: QVQLVQSGAEVKKPGASVKVSCKASGYTFTNYDIIWVRQAPGQGLEWMGYINPYNDGTKYNEKFKGRVTMTRDTSTSTVYMELSSLRSEDTAVYYCARLLKYRRFRYYAIDYWGQGTTVTVSS
VL: DIQMTQSPSSLSASVGDRVTITCRTSENVYSNLAWYQQKPGKAPKLLIYAASNLQSGVPSRFSGSGSGTDYTFTISSLQPEDIATYYCQHFWGSPFTFGQGTKLEIKR
notes: captured by anti-mFc in SPR; also called Comparator; comparator anti-TrkB monoclonal antibody
B3: H4H9780P (antibody, human IgG4 S228P, kappa, V domains shown)
VH: QVQLVESGGGVVQPGRSLRLSCAASGFSFSSFGMHWVRQAPGKGLEWVSVISYDGINTYYTDSVKGRFTISRDNSKNTLYLQMNGLRAEDTALYYCVQGSIGTVFEYWGQGTLVTVSS
VL: DIQMTQSPSSLSASVGDRVTITCRASQGISNYLAWYQQKPGKVPKLLIYAASTLQSGVPSRFGGSGSGTDFTLTISSLQPEDVATYYCQKYTSAPFTFGPGTKVDIKR
notes: Fully human anti-human TrkB agonist antibody, human IgG4 Fc; also called H4H9780P-L1
B4: H4H9816P2 (antibody, human IgG4 S228P, kappa, V domains shown)
VH: EVQLVESGGGLVQPGGSLTLSCAASGFNFRDYEMIWVRQTPGKGLEWISYISNSGYTIYYADSVKGRFTISRDNARNSIYLQVNSLRAEDTAVYYCSRRTTMIRGIRAYYYYGLDVWGQGTTVTVSS
VL: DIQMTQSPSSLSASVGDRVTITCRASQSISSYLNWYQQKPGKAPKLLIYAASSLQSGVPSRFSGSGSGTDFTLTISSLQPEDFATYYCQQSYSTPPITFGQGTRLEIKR
notes: Fully human anti-human TrkB agonist antibody, human IgG4 Fc; also called H4H9816P-L1

How the values were obtained:
[1] = target: T1, human TrkB extracellular domain expressed with a C-terminal myc-myc-hexahistidine tag (human, UniProt Q16620 32-430); assay: SPR, mAb captured (anti-hFc), 37C
T1 construct: also called hTrkB.mmH; hTRKB.mmH
Experimental: (§1) Equilibrium dissociation constants (KD values) for TrkB binding to purified anti-TrkB monoclonal antibodies were determined using a real-time surface plasmon resonance biosensor using a Biacore 4000 instrument. All binding studies were performed in 10 mM Hepes pH 7.4, 150 mM NaCl, 3 mM EDTA, and 0.05% v/v Surfactant Tween-20 (HBS-ET running buffer) at 25° C. and 37° C. […] Binding studies were performed on following TrkB reagents; human TrkB extracellular domain expressed with a C-terminal myc-myc-hexahistidine tag (hTRKB.mmH; SEQ ID NO: 76; Accession number NP_001018074.1), mouse TrkB extracellular domain expressed with a C-terminal myc-myc-hexahistidine tag (mTRKB.mmH; SEQ ID NO: 79; Accession number NP_001020245), rat TrkB extracellular domain expressed with a C-terminal myc-myc-hexahistidine tag (rTRKB.mmH; SEQ ID NO: 84; Accession number NP_036863.1), and human TrkB extracellular domain expressed with a C-terminal mouse IgG2a Fc tag (hTrkB-mFc; SEQ ID NO: 77; Accession number NP_001018074.1). […] Kinetic association (kₐ) and dissociation (kd) rate constants were determined by fitting the real-time binding sensorgrams to a 1:1 binding model with mass transport limitation using Scrubber 2.0c curve-fitting software. Binding dissociation equilibrium constants (KD) and dissociative half-lives (t½) were calculated from the kinetic rate constants as: […]

[2] = target: T2, mouse TrkB extracellular domain expressed with a C-terminal myc-myc-hexahistidine tag (mouse, UniProt P15209 32-429); assay: SPR, mAb captured (anti-hFc), 37C
T2 construct: also called mTrkB.mmH; mTRKB.mmH
Experimental: as §1

[3] = target: T3, human TrkB extracellular domain expressed with a C-terminal mouse IgG2a Fc tag (human); assay: SPR, mAb captured (anti-hFc), 37C
T3 construct: also called hTrkB-mFc; hTrkB.mFc
Experimental: as §1

[4] = target: T4, rat TrkB extracellular domain expressed with a C-terminal myc-myc-hexahistidine tag (rat, UniProt Q63604 32-429); assay: SPR, mAb captured (anti-hFc), 37C
T4 construct: also called rTrkB.mmH; rTRKB.mmH
Experimental: as §1

[5] = target: T3, human TrkB extracellular domain …; assay: BLI Octet, captured hTrkB.mFc saturated with hNT-4, 300 nM mAb
Experimental: (§2) Blocking of anti-human TrkB or anti-mouse TrkB antibodies from binding to TrkB by BDNF or NT-4 was evaluated using a real-time bio-layer interferometry (BLI) based Octet HTX instrument. The entire study was performed in 10 mM HEPES pH 7.4, 300 mM NaCl, 3 mM EDTA, 1 mg/mL BSA, 0.02% NaN3 and 0.05% v/v Surfactant Tween-20 (HBS-EBT running buffer) at 25° C. All the samples were dispensed in a 384 tilted well plate and the plate was placed on the orbital shaker with the shake speed of 1000 rpm. hTrkB.mFc was captured on anti-mFc (AMC) Octet sensors while hTrkB.hFc or mTrkB.hFc were captured on anti-hFc (AHC) Octet sensors by dipping in wells containing 10 μg/mL of TrkB reagents for 2 minutes. hTrkB.mFc or hTrkB.hFc captured Octet biosensors were saturated by dipping in wells containing 20 nM of BDNF, hNT-4, or mNT-4 for 2 minutes followed by dipping Octet biosensors in wells containing 300 nM of different TrkB mAbs for 4 minutes. Binding of TrkB mAbs to the complex of TrkB and BDNF, hNT-4, or mNT-4 was determined using Scrubber 2.0c analysis software.

[6] = target: T3, human TrkB extracellular domain …; assay: BLI Octet, captured hTrkB.mFc, 300 nM mAb (BDNF run)
Experimental: as §2

[7] = target: T5, human TrkB extracellular domain (aa Cys32-His430) expressed with the Fc portion of human IgG1 at the … (human); assay: competition ELISA, 500 pM hTrkB-hFc pre-mixed with mAb, plate-coated hNT-4
T5 construct: also called hTrkB-hFc; hTrkB.hFc
Experimental: Experiments were carried out using the following procedure. Human BDNF or NT-4 were separately coated at a concentration of 0.5 μg/mL or 2 μg/mL, respectively, in PBS on a 96-well microtiter plate overnight at 4° C. […] Blocking solution and dilution buffer contained 5% (w/v) solution of BSA in PBS for assay with BDNF coat, or 0.5% (w/v) solution of BSA in PBS for assay with NT-4 coat. On separate microtiter plates, a constant amount of 500 pM of hTrkB-hFc protein was added to serial dilutions of antibodies with final concentrations ranging from 1.7 pM to 100 nM, and solutions with no antibody present. (The constant concentration of hTrkB-hFc for antibody inhibition assays was selected from the approximate midway point within the linear portion of individual binding curves of hTrkB-hFc to plate-coated hBDNF or hNT-4). After one hour incubation at room temperature, antibody-protein complexes with 500 pM constant concentration of hTrkB-hFc protein were transferred to microtiter plates coated with hBDNF or hNT-4. After one hour incubation at room temperature, the wells were washed, and plate-bound hTrkB-hFc was detected with anti-human Fcγ fragment specific goat polyclonal antibodies conjugated with horseradish peroxidase (JacksonImmunoResearch). The plate was then developed using TMB substrate solution (BD Biosciences) according to manufacturer's recommendation and absorbance at 450 nm was measured on a Victor plate reader (PerkinElmer™).
The ability of anti-TrkB antibodies to block TrkB binding to BDNF or NT-4 was assessed using two competition sandwich ELISAs. Human TrkB-hFc binding to hBDNF or hNT-4 coated on 96-well microtiter plates, in the presence of serially diluted antibodies or no antibody controls, were detected with HRP-conjugated anti-human Fcγ fragment specific goat polyclonal antibodies. IC₅₀ values were calculated and used as the potency indicator of antibody blocking hTrkB-hFc binding to hBDNF or hNT-4. In addition, the maximum blockade of 500 pM hTrkB-hFc with each antibody at the highest tested concentration was calculated and compared.

T3 sequence (chain, as listed by the source limits assumed): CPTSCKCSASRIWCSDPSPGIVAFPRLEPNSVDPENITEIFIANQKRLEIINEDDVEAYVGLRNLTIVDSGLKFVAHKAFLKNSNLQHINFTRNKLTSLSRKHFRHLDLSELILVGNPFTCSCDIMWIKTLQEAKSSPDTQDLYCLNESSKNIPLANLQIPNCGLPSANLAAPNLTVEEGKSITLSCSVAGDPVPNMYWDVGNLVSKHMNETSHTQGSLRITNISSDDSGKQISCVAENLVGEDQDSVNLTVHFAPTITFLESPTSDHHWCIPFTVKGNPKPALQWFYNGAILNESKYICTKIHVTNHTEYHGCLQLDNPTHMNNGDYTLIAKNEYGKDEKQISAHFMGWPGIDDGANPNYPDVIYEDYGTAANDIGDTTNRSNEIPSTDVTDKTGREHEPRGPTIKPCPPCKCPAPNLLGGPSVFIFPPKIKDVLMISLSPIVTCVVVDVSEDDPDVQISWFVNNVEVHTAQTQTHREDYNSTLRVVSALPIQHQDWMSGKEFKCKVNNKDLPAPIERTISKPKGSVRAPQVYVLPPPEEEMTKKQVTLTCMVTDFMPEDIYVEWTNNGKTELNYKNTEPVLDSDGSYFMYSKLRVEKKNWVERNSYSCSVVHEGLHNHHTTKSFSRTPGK
T4 sequence (Q63604 other isoform, or with tags, fused parts or gaps): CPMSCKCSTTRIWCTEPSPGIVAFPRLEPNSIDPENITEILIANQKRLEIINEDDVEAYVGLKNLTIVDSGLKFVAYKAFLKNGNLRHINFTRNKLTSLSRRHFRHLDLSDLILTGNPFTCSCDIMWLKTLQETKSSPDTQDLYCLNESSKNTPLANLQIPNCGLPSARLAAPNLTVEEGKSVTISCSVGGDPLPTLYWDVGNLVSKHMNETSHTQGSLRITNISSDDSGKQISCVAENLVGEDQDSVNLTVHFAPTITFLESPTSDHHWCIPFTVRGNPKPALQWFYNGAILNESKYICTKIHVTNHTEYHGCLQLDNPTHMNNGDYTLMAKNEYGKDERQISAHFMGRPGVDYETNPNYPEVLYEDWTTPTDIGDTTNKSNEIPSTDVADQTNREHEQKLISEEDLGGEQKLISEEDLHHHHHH
T2 sequence (P15209 other isoform, or with tags, fused parts or gaps): as the sequence (Q63604 other isoform, or with tags, fused parts or gaps) above, with M3T, T9S, T10A, I32V, K63R, G84S, T153M, I185L, T394S counted along it
T1 sequence (Q16620 other isoform, or with tags, fused parts or gaps): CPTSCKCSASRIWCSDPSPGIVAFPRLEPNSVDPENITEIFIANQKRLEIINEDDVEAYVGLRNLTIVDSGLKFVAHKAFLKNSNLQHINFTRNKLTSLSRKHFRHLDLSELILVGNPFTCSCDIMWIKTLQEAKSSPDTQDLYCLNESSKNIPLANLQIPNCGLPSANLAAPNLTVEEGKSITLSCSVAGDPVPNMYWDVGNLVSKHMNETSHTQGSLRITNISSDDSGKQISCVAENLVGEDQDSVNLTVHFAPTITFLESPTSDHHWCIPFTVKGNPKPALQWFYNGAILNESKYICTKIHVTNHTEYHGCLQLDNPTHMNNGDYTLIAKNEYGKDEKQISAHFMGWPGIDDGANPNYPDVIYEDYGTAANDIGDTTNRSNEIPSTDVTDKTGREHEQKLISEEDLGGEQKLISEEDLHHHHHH
T5 sequence (chain, as listed by the source limits assumed): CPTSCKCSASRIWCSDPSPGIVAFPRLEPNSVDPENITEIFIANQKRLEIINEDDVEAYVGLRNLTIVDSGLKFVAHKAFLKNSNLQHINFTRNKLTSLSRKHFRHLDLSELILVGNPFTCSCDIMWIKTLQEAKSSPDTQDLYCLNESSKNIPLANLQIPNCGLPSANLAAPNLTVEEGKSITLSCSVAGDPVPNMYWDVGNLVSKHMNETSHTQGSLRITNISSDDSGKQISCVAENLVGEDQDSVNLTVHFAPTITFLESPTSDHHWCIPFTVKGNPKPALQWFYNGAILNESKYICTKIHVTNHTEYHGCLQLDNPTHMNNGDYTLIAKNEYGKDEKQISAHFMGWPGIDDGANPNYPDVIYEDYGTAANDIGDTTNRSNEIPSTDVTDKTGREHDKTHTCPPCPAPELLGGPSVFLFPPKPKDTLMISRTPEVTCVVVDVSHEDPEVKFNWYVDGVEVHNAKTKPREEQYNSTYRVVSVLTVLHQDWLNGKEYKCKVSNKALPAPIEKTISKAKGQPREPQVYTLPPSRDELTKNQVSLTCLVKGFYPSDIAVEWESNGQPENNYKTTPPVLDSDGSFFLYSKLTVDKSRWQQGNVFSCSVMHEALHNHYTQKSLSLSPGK

Row | Binder | 100 nM hTrkB.mmH Bound (RU) [1] [RU] | Kd [1] [nM] | koff [1] [s⁻¹] | kon [1] [M⁻¹ s⁻¹] | t½ [1] [min] | 100 nM mTrkBmmH Bound (RU) [2] [RU] | 100 nM hTrkB-mFc Bound (RU) [3] [RU] | Kd [3] [nM] | koff [3] [s⁻¹] | kon [3] [M⁻¹ s⁻¹] | t½ [3] [min] | 100 nM rTrkB.mmH Bound (RU) [4] [RU] | antibody Binding (nm) [5] [nm] | mAb Binding (nm) [6] [nm] | % Blockade with 100 nM antibody [7] [%] | IC50 [7] [nM] | binding result [4]
1 | B1 | 32 | 2.28 | 0.00468 | 2.05e+06 | 2.5 | 0 | 42 | 0.0733 | 0.000208 | 2.83e+06 | 56 | -1 | 0.23 | 0.18 | 38 | – | –
2 | B2 | – | – | – | – | – | – | – | – | – | – | – | – | – | – | 95 | 0.045 | –
3 | B3 | 14 | 63.8 | 0.00364 | 57100 | 3.2 | 1 | 14 | 3.33 | 0.000222 | 66500 | 52 | 0 | 0.2 | 0.18 | 80 | 0.18 | –
4 | B4 | 12 | 70.8 | 0.00374 | 52800 | 3.1 | 0 | 14 | 3.46 | 0.00024 | 69500 | 48 | 0 | 0.24 | 0.19 | -123 | – | no binding (tested: 100 nM)

— patent US20190161551A1 (Regeneron, published 2019)
